Target: α-actin, endogenous (T. vaginalis) (T. vaginalis (endogenous in TH17 trophozoites))
Assay: co-sedimentation

Question: How did the percent co-sedimented with F-actin (F-actin fraction) turn out when “TvFACPα (F-actin capping protein subunit α homolog), endogenous (natural protein)” was run?
Answer: Its percent co-sedimented with F-actin (F-actin fraction) is 25%.

From publication doi:10.1101/2022.06.09.495492
